Measurements published in patent US20170306031A1 (NGM BIOPHARMACEUTICALS, published 2017).

T1: human GFRAL expressed on cells (human, UniProt Q6UXV0 20-394)
T1 sequence: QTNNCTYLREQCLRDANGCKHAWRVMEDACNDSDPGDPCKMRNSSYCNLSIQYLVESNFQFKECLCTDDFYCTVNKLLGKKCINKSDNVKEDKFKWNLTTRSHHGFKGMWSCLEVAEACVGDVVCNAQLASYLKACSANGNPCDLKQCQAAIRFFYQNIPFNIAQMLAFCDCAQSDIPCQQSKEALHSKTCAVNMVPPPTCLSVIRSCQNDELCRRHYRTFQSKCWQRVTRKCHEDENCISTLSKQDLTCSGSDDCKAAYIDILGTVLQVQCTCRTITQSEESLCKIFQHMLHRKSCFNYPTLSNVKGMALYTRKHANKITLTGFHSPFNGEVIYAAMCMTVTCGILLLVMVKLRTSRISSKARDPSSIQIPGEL

T2: human GFRAL (analyte in Biacore assays) (human, UniProt Q6UXV0 19-351, limits assumed)
T2 construct: injected in solution over captured antibody; also called hGFRAL
T2 sequence: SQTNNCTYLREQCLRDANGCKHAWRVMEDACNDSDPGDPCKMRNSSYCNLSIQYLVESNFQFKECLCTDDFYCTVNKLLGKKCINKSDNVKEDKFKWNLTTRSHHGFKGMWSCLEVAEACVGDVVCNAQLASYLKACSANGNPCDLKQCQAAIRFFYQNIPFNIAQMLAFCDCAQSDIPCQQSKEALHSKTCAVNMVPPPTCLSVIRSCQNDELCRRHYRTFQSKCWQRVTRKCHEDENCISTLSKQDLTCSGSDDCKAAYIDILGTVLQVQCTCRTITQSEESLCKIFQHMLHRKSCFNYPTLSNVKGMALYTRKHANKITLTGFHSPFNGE


What was measured:
[1] = biological target: T1, human GFRAL expressed on cells; test: cell-based or functional assay
[2] = biological target: T2, human GFRAL (analyte in Biacore assays); test: Biacore SPR, antibody captured, human GFRAL injected
Experimental: Exemplary humanized anti-GFRAL antibodies identified in Example 6 were assayed for their binding affinity to human GFRAL. Binding affinity measurements were made in Biacore based assays. For example, equilibrium dissociation constant (KD) measurements were carried out with purified antibodies to evaluate their binding to human GFRAL. Using methods described in Example II, anti-mouse Fc antibody (Sigma-Aldrich, St. Louis, Mo.) was immobilized on all four flow cells of a CM5 chip using amine coupling reagents (GE Healthcare LifeSciences, Piscataway, N.J.). Purified humanized anti-GFRAL antibodies were captured (˜100 RUs) on flow cells 2, 3 and 4 using flow cell 1 as a reference. This was followed by injection of human GFRAL in PBS-P buffer) at a flow rate of 70 μL/min and the binding kinetics were evaluated at 25° C.

Row | Binder | IC50, ELK1-luciferase reporter (hGFRAL/hRET) [1] | Kd [2]
1 | humanized anti-GFRAL antibody HC-375d/LC-375c (antibody, IgG1, V domains shown, humanized 5F12) VH: QVQLVQSGAEVKKPGSSVKVSCKASGYTFTDYYINWVRQAPGQGLEWIGRIYPGNGNTYHNEKFKGRATLTADKSTSTAYMELSSLRSEDTAVYYCAREGLYYDYDRYFDYWGQGTLVTVSS VL: DIQMTQSPSSLSASVGDRVTITCRASESVDTYGNSFMHWYQQKPGKAPKLLIYLASNLESGVPSRFSGSGSGTDFTLTISSLQPEDFATYYCHQNNEDPPAFGGGTKVEIK | 3.28 nM | 0.075 nM
2 | humanized anti-GFRAL antibody HC-375d/LC-375j (antibody, IgG1, V domains shown, humanized 5F12) VH: QVQLVQSGAEVKKPGSSVKVSCKASGYTFTDYYINWVRQAPGQGLEWIGRIYPGNGNTYHNEKFKGRATLTADKSTSTAYMELSSLRSEDTAVYYCAREGLYYDYDRYFDYWGQGTLVTVSS VL: DIVLTQSPLSLPVTLGQPASISCRASESVDTYGNSFMHWYQQRPGQSPRLLIYLASNLESGVPDRFSGSGSRTDFTLKISRVEAEDVGVYYCHQNNEDPPAFGGGTKVEIK | 3.11 nM | 0.046 nM
3 | humanized anti-GFRAL antibody HC-375e/LC-375c (antibody, IgG1, V domains shown, humanized 5F12) VH: QVQLVQSGAEVKKPGSSVKVSCKASGYTFTDYYINWVRQAPGQGLEWMGRIYPGNGNTYHNEKFKGRATLTADESTSTAYMELSSLRSEDTAVYYCAREGLYYDYDRYFDYWGQGTLVTVSS VL: DIQMTQSPSSLSASVGDRVTITCRASESVDTYGNSFMHWYQQKPGKAPKLLIYLASNLESGVPSRFSGSGSGTDFTLTISSLQPEDFATYYCHQNNEDPPAFGGGTKVEIK | 2.2 nM | 0.092 nM

Results, then the binder that gave them:

Row | IC50, ELK1-luciferase reporter (hGFRAL/hRET) [1] | Kd [2] | Binder
4 | 2.27 nM | 0.081 nM | humanized anti-GFRAL antibody HC-375e/LC-375g (antibody, IgG1, V domains shown, humanized 5F12) VH: QVQLVQSGAEVKKPGSSVKVSCKASGYTFTDYYINWVRQAPGQGLEWMGRIYPGNGNTYHNEKFKGRATLTADESTSTAYMELSSLRSEDTAVYYCAREGLYYDYDRYFDYWGQGTLVTVSS VL: DIVLTQSPDSLAVSLGERATINCRASESVDTYGNSFMHWYQQKPGQPPKLLIYLASNLESGVPDRFSGSGSRTDFTLTISSLQAEDVAVYYCHQNNEDPPAFGGGTKVEIK
5 | 7.29 nM | 0.06 nM | humanized anti-GFRAL antibody HC-375h/LC-375j (antibody, IgG1, V domains shown, humanized 5F12) VH: QVQLVQSGAEVKKPGASVKVSCKASGYTFTDYYINWVRQAPGQRLEWIARIYPGNGNTYHNEKFKGRATLTRDKSASTAYMELSSLRSEDTAVYYCAREGLYYDYDRYFDYWGQGTLVTVSS VL: DIVLTQSPLSLPVTLGQPASISCRASESVDTYGNSFMHWYQQRPGQSPRLLIYLASNLESGVPDRFSGSGSRTDFTLKISRVEAEDVGVYYCHQNNEDPPAFGGGTKVEIK
6 | 2.75 nM | 0.062 nM | humanized anti-GFRAL antibody HC-375d/LC-375i (antibody, IgG1, V domains shown, humanized 5F12) VH: QVQLVQSGAEVKKPGSSVKVSCKASGYTFTDYYINWVRQAPGQGLEWIGRIYPGNGNTYHNEKFKGRATLTADKSTSTAYMELSSLRSEDTAVYYCAREGLYYDYDRYFDYWGQGTLVTVSS VL: DVVLTQSPLSLPVTLGQPASISCRASESVDTYGNSFMHWFQQRPGQSPRLLIYLASNLESGVPDRFSGSGSGTDFTLKISRVEAEDVGVYYCHQNNEDPPAFGGGTKVEIK
7 | 4.01 nM | 0.048 nM | humanized anti-GFRAL antibody HC-375e/LC-375j (antibody, IgG1, V domains shown, humanized 5F12) VH: QVQLVQSGAEVKKPGSSVKVSCKASGYTFTDYYINWVRQAPGQGLEWMGRIYPGNGNTYHNEKFKGRATLTADESTSTAYMELSSLRSEDTAVYYCAREGLYYDYDRYFDYWGQGTLVTVSS VL: DIVLTQSPLSLPVTLGQPASISCRASESVDTYGNSFMHWYQQRPGQSPRLLIYLASNLESGVPDRFSGSGSRTDFTLKISRVEAEDVGVYYCHQNNEDPPAFGGGTKVEIK
